Consider one protein from article PMC4935067 (Nature, 2015).

The data set concerns the molecule itself. The data set can be described thus: SEC.

B1: Csy3, MBP/6xHis-tagged (natural protein, Pseudomonas aeruginosa, UniProt Q02MM1 1-342, looked up)
chain: MSKPILSTASVLAFERKLDPSDALMSAGAWAQRDASQEWPAVTVREKSVRGTISNRLKTKDRDPAKLDASIQSPNLQTVDVANLPSDADTLKVRFTLRVLGGAGTPSACNDAAYRDKLLQTVATYVNDQGFAELARRYAHNLANARFLWRNRVGAEAVEVRINHIRQGEVARAWRFDALAIGLRDFKADAELDALAELIASGLSGSGHVLLEVVAFARIGDGQEVFPSQELILDKGDKKGQKSKTLYSVRDAAAIHSQKIGNALRTIDTWYPDEDGLGPIAVEPYGSVTSQGKAYRQPKQKLDFYTLLDNWVLRDEAPAVEQQHYVIANLIRGGVFGEAEEK
B1: the binding result is “binds”.
